The values below come from article PMC5900708.

The experiment has as its target human DOT1L^CC2 (second coiled-coil domain of DOT1L) (human) (UniProt Q8TEK3). Kind of experiment: SEC. (In gel filtration, larger molecules generally elute earlier.)

By stoichiometry N is commonly meant the number of molecules, sites or subunits per partner or assembly. “human DOT1L^CC2 (second coiled-coil domain of DOT1L) (from UniProt Q8TEK3 1-1537) (domain or fragment)” had a stoichiometry N of 2.
